{"source": "the DeepSol protein solubility set"}
{"assay": "soluble on expression in E. coli; label from the status in PepcDB or PDB records"}
{"sequence": "MSLGGSVEVLHWWTAGGEAKAVSALKDQFEAEGGTWIDSPVAGGGGDAAMTALRSRVIAGNPPSAVQLKGPSIQEWAAEGVVANLDDIAKAENWDKLLPALLKSVVTYEGHYVAVPVNIHRVDWLWANPAVLAKAGVAVPTTWDEFNTAAEALKAKGIIPLAHGGQPWQDATLFEVVVLGLGGPAFYHKALVELDDAALRGDTMVKVFDQMRRLRGFVDPNFSGRDWNLATAMVINGEAGFQIMGDWAKGEFLGAGKVPGKDFLCIAAPGKGFLLNSDSLVMFDVKGADKIEGQKTLARLVLGETFQRTFNTLKGSIPARQGMDLADFDACAQKSQADLTKAIAADSLEPSMAHEMAVPRSVRGAIMDVVTAHFNSSESSAEAVAHLADSIAQAREGHHHHHH", "soluble on expression in E. coli": "soluble"}
{"sequence": "MAHHHHHHHRSAAGTIWEFDGGACGARTALVKVDRVDRRYQDLVTRGFNGRFRGRPDVVYVVHTADQVVDAVNQAMAAGQRIAVRSGGHCFEGFVDDPAVRAVIDMSQMRQVFYDSGKRAFAVEPGATLGETYRALYLDWGVTIPAGVCPQVGVGGHVLGGGYGPLSRRDGVVADHLYAVEVVVVDASGRARKVVATSAADDPNRELWWAHTGGGGGNFGIVTRYWFRTPGATGTDPSQLLPKAPTSTLRHIVTWDWSALTEEAFTRIIDNHGAWHQSNSAAGTPYASMHSVFYLNSRAAGQILLDIQIDGGLDGAEALLNDFVAAVNEGTGVEPAVQRSTEPWLRATLANKFDTGGFDRTKSKGAYLRKPWTAAQAATLYRHLSADSQVWGEVSLYSYGGKVNSVPETATATAQRDSIIKVWMSATWMDPAHDDANLAWIREIYREIFATTGGVPVPDDRTEGTFINYPDVDLVDERWNTSGVPWYTLYYKGNYPRLQKVKARWDPRDVFRHALSVRPPG", "soluble on expression in E. coli": "soluble"}
{"sequence": "MIDRLAMIGVNVKTASREHVARLEKEWEKHLDTIGYASRGTVIIATCNRFEVYLDSPSRLVEDLASSIASPGGEGLVRLQGIDAARHLFRVASGLESQIIGDHEVLGQVRRAWLKSREKGFTTPLLDEVFHRALKTGARVRSESAISSGGVGYSSAAVSLAASLLGGGLDGARVGIVGAGMAAVGIARALCTRWRPRVVAVFNRTPERGWEVAGKCRGVESLVLPLDELAKLINELDALFVAIAGSTNILERGRVERGVSPRVIVDISNPPVTPKVAGRVFHMPEVEEEAKRMMEERLRWIPAAEAIIEEELEALLDALSRRRARESSRSVMRALSILAEREYERTLAGLRNGVDPREAVELALNSYTKKVGGALRRLLEEASDRGQLSLEDIEAILVSEFARIAENSGFKNGSTG", "soluble on expression in E. coli": "soluble"}
{"sequence": "MSVSITFTDAAKRALASIVAQSERQLKLAFDTDGCGCLVDGVPALWLVDKADEDDVVVETNFMPVLVERSRLIFFDEAMTIDVKPGTTVFQLKSPGQTLNGHMPLVEVKSGHER", "soluble on expression in E. coli": "not soluble"}
{"sequence": "MAEASIEKTQILQKYLELDQRGRIIAEYVWIDGTGNLRSKGRTLKKRITSIDQLPEWNFDGSSTNQAPGHDSDIYLKPVAYYPDPFRRGDNIVVLAACYNNDGTPNKFNHRHEAAKLFAAHKDEEIWFGLEQEYTLFDMYDDVYGWPKGGYPAPQGPYYCGVGAGKVYARDMIEAHYRACLYAGLEISGINAEVMPSQWEFQVGPCTGIDMGDQLWMARYFLHRVAEEFGIKISFHPKPLKGDWNGAGCHANVSTKEMRQPGGTKYIEQAIEKLSKRHAEHIKLYGSDNDMRLTGRHETASMTAFSSGVANRGSSIRIPRSVAKEGYGYFEDRRPASNIDPYLVTGIMCETVCGAIDNADMTKEFERESS", "soluble on expression in E. coli": "soluble"}
{"sequence": "MMEQKQEIHATVSINNVQYEVIKNFRDGFSEEAFKERYAEILNKYDYIVGDWGYEQLRLRGFFDDSNQRATYDTKISTLTEYLYEYCNFGCAHFVLRKVKK", "soluble on expression in E. coli": "not soluble"}
{"sequence": "MLTGRESLLRLIGKRRRFLPNRHLLLSAHTPNSLNLEFNDYGNLVSLAGDDCRLSEDPTSSDDPSKFSDDLSLSTRKKRRLTQTTLLQSSFLSVPKQLEDGLVICTQQKSILDSETFEFSLVQRSEPSESICCKVEDGSCSPSREESLKTVTLDEDNGEAIETFIVGRKFSDVQDLEIGGDIFLLRHPENVKDRNAIKVISGDSEMLGYLPKDISQCLSPLIDDYDLKFEGTITSVPKKSSEAVLIKVVCHKMRSDGWKECELYGDFKPLWEKVLQVVEHQMQFPPKTTRYQLNFNVLLQEVLRSCSHLFTADEKAFLESFPTLSEDSQRLFIRLYTRKGPWFRLSNISYPEVTDSLQALKDLTVRGFMSSVKDANELDNQKMKEITELLNVTELRDILSMNKVFSRTSRKRDLINSLCSCYNDGTRINLATVILERTGLCAKVSSTAESLIWRVERLFFLNGEQDLSSFVLLDLGIIKYPTYKCIDSEQIFSNRTKLLAYEEAIEVAQLMDESLDNEDPQTVLKCIIIAETRISSSSLDSAHAAAFNRFTAPWVNSKVVLLGVSFFENQKRYNRAVYLLRRLLSCFNCDGRRGYWTVRLSTDLEHMGRPNESLTVAEQGLLDPWVRAGSRVALQRRILRLAKPPRRWKTPTFSNLVDNKIPEVTIQGRSLNCEVGIKNRFYGEDGEQCGVEQLALQYYSGEGGGWQGIHTESSIWLTIFGLLMWDILFSDVPGVFQTRFQVNETQ", "soluble on expression in E. coli": "not soluble"}
{"sequence": "DIGCYTLGALPPYEAINSCVDMGASITMAKGAADAGLFPAVSVIGDSTFTHSGITGLLDAINENSNITVIISDNESISMTGGQHSSAYGKVEAICRGIGVDPDHIRELLPVPKNHDELCSIIREEINYEGVSVIIPRRVCIQKHARDAKAAKRAKA", "soluble on expression in E. coli": "not soluble"}
{"sequence": "MTNRYVVIFTVGPVQSFIASARKTEDFWSGSYILSHLVREAIKRFYQFDANCEMIYPLVTEKELRSPSQRDVHIASIPNRLTVIMEGTEEEVCGWLREAEQDVCNVFLDFCFQAVRRVFPHLTDHEQELLERMVEQQVRSFLEIYWVAEPYEPSMSFREVRERAERRLGALKNEKHYIPVSQQGLVCSVCKEREALRLEEIGEFDHYGEIKKKTMSLWQRRAVKFQGTGGDEEDDRRAGRIKDNEFLCGICLGKRAARDYFADLFGTSFPSFPSVLDIGQGDYYAVLLMDGDDMGKWFSGERKDEYSRTSQKLARFAKETVPWIVQERCKGKLVYAGGDDVLAFVPVETALKAAEMLRLAFADERQGLGSGATASFGVVIAHKKAPLQHVLNAARALEQKAKRYYNDKTAQRKDALALAVHTRSGEISEAVLPWIVGEKMVSKLLEEWLGLLKTSLSPNFIFHFASAFAPLLHEKDCPKWENRDMLATELRRLLRRSVKEGSCLDAQDIARYTSTLLVLHEAVRSSYDFLHLLKMLTFFKRSKGRG", "soluble on expression in E. coli": "not soluble"}
{"sequence": "MDQFSEPEETQVEQVENPDRNEAGYEVCNQSGENLSVAIAYFDTSIDSYRSEGWWNLDQSKCQFFPNLLDSVDEVYVFAESDQTLWSGDFPFCMQEDAFEYPDANRDRCPSPAYSKGFLKVEVGDAKTWTTLEHHHHHH", "soluble on expression in E. coli": "soluble"}
{"sequence": "MLPCLNEEESLPAVLAAIPAGYRALVVDNNSTDDTATVAARHGAQVVVEPRPGYGSAVHAGVLAATTPIVAVIDADGSMDAGDLPKLVAELDKGADLVTGRRRPVAGLHWPWVARVGTVVMSWRLRTRHRLPVHDIAPMRVARREALLDLGVVDRRSGYPLELLVRAAAAGWRVVELDVSYGPRTGGKSKVSGSLRGSIIAILDFWKVISLEHHHHHH", "soluble on expression in E. coli": "not soluble"}
{"sequence": "MRFEYDLLIVAASPLALDIAYRCAPLGRIGLVIPPPDGQWQWQWQRWWLSQFPPRTLDAQHWQHFQAHLSHGQRRYAPAVLELVGVDVITGVGEFVWRPRCHFQVGGDRLYARGYLLLDAPAAMDFQDMDALSRIELACWHYWSGKAPNADAQGLPVVTTEDAWFNDRLHAALKALGLAIPGSGKRKAPDFSPLHLHPLQRDAQGWLRLNRYGRTSHPQIYACGGWQRGYHLPSLTYFEAFAIARQILQRRPIPLDYRSQPWWIALPIPMARVGWNGRQAQQSLREPIQLWEIQQWSPEGQSLGQVVINRQGRLLGATLIGRAAIASSRIFGRCLDENAFAAITYAGWELDCQRQRSPKARRLPKSGSGLDSPLPLEHHHHHH", "soluble on expression in E. coli": "soluble"}
{"sequence": "MVITDTAAWVQSQSRSIVDFISAPNSNSSLPPYVQIGAAAAVTMGLGYYLSKSSSSTSGSYSFSGVTYSGNVKPLVDPMNQSRILPDGSRISAYLKDDELQAFLFEDARTLYQGVRRGARLSNNGPMLGRRVKQSDGSIPYVWESYNTILERADNVSVAFRELGVPTGNAENIGIYSKNRAEWIITEFATYNYSNVIVPIYETLGSEASIFILNQAEIKIVVCDDISKATGLLKFKEQCPSLSTLVVMEPVTDELKTTASSLGVEVLTFEDLEKIGKNAKTRPAHIPPTPEDLATICYTSGTTGTPKGVMLTHANVIADGVCMDFFKHSGIAATDSMISFLPLAHMLERVIESVCFCVGAKVGFYRGDIRVLAEDIKELKPTVVPVVPRVLNRLYDKVMSEVNKSTLKKMLFDFAISYKARDMANFNIRNDGFFDNLVFKKIREGFGGRVRLMITGSAPLSTNVLTFVRAAMGCVVVEGYGQTECVAACTVSMEGDSLAGHVGMVIPSCQIKLVDVPELNYYAKDQAGEVCVKGHIIFKGYYKNEQQTKETIDEDGWLHTGDIGRWTPEGTLKIVDRKKHIFKLSQGEYVAPEKIENIYVRSKYVAQSFVHGESLKTCLIAIVVPDAEVLVPAMADQGIKGTFEELCNNDAVKKAILDDMVAVGKKAGLFSFEQVRDISLSAEQFSVENDLLTPTLKSKRPKLKAHYSKQLDAMYSKLP", "soluble on expression in E. coli": "not soluble"}
{"sequence": "MLVKGNEILLKAHKEGYGVGAFNFVNFEMLNAIFEAGNEENSPLFIQASEGAIKYMGIDMAVGMVKIMCERYPHIPVALHLDHGTTFESCEKAVKAGFTSVMIDASHHAFEENLELTSKVVKMAHNAGVSVEAELGRLMGIEDNISVDEKDAVLVNPKEAEQFVKESQVDYLAPAIGTSHGAFKFKGEPKLDFERLQEVKRLTNIPLVLHGASAIPDNVRKSYLDAGGDLKGSKGVPFEFLQESVKGGINKVNTDTDLRIAFIAEVRKVANEDKSQFDLRKFFSPAQLALKNVVKERMKLLGSANKI", "soluble on expression in E. coli": "soluble"}
{"sequence": "LTVLELESQIDVLSRIQFVSRFGSNLVHIEGVKGSGKSWLAQRYLEKWCDDADQVLLMCHPNQSIQQQRGIILKQVVRDPLFNESDSVVDSVGRMLAGEKCNLVLAIDDAHLLSSELLSELWLLVQKAQSAPNWQINILLFAEKGKLTQTLSQMSYGQDNKPVDIDINP", "soluble on expression in E. coli": "soluble"}
{"sequence": "MSLRPSAPELDHAKRQRLARLPKPVPLGVCTLREQRWVVLDLETSGLNPNRDQVLSIGAVAIEDGAIDFAQQFERTLHRPLQKTNASVLIHGLGPSALAAGCDPAEALLDLLDFIGNSPVLAFHAPFDQRMLARALKETLGHRLQSMFLDVAELAPMLNPDTVLREAGLDDWVARFGLQVEERHHASADAQVTAELALILFSQARRQQLDSPLQLEQRLRGWRRRKMQSHGEGHHHHHH", "soluble on expression in E. coli": "soluble"}
{"sequence": "GAHVSRVEKLPKDYQIVYKEIQKYLFKVGPVELNEGIGLLSEILGFFEEGAAAGKGVLDVTGTDVAAFCDALIGDSKTYADLYQESIQQHVDKAMKNMKD", "soluble on expression in E. coli": "soluble"}
{"sequence": "MKNIKEKGSQALKITATVFILAVICMSSAASAANLHVDPEAEEGYTTIQAAVDAANAGDTIFVSPGTYVENLKIDKQVRIWSDSRNPENTIVRPSDPAESPVEITGERVTFSGFGVEDSEKAGILLSGATSCFINNNRAQNSKYGILLQDAESNNINGNVITLNEAGLRLESSRSNTIQDNLIAYNYGPGISLEESSRNIFFNNYFKNAENIEENAANADNTWQSTLTVKRNLIRGPYIGGNFWADIEGTGYSETCEDKNSNGICDASYTLNGGGSDNSPLFPKVPSAVTALENKLDAEAYELGMETRGVEVNETENPAGEQTGENGPEGEENKTAETEASENGTPAPGIGFAIMAAGAAYFLKRRKAAALEHHHHHH", "soluble on expression in E. coli": "not soluble"}
